The target in the test is T1, Peptide 2: α-synuclein amino acids 108-117 (10 amino acids) PQEGILEDMP (human, also: biotin, position not given here).
T1 construct: Biotinylated peptide loaded on streptavidin biosensors
T1 peptide: PQEGILEDMP
Nature of the test: BLI (ForteBio Octet Red96), biotinylated peptide on streptavidin biosensors, IGP101 at multiple concentrations. The method, then: The binding of IGP101 to two biotinylated α-synuclein peptides (SEQ ID NO:10 and SEQ ID NO:11) was determined using the Streptavidin biosensors. Biotinylated peptides were loaded at 5 μg/ml for 700 seconds, 300 seconds for baseline recording and then IGP101 association and dissociation measured for 600 seconds each at multiple concentrations. Double reference sensors were employed in all testing to measure and subtract any observed background signal from nonspecific binding or system noise.
Analysis was performed with ForteBio Data Analysis Software (v8.2). After background subtraction, a 1:1 local kinetic model was fit to the observed association and dissociation curves. Overall KD, Kₒₙ, Koff, and R2 correlation coefficients were determined. Where possible, a global curve fit was also performed for multiple concentrations of the antibody/analyte.
On the technique in general: Biolayer interferometry detects binding as a change in optical thickness at a sensor tip.

The values below come from patent US20190330315A1 (IMAGO PHARMACEUTICALS, published 2019).

Where no end group is shown, it is not given here.

B1: IGP101 (antibody, V domains shown)
VH: EVQLVESGGGLVQPKGTLKLSCAASGFSFNTYAMNWVRQAPGKSLEWVARTLSKSNNYATYYADSVKDRFTISRDDSQSMLSLQMNNLKTEDTAMYYCVGAFAYWGQGTLVTVSA
VL: DIVMTQAAPSVPVTPGESVSISCRSSKSLLHSNGNTYLYWFLQRPGQSPQLLIYRMSNLASGVPDRFSGSGSGTAFTLRISRVEAEDVGVYYCMQHLEFPFTFGAGTKLELK
notes: Mouse monoclonal antibody from hybridoma ATCC PTA-9197; It was tested as whole mouse IgG, captured on anti-mouse IgG biosensors; The constant regions and isotype are not explicitly stated; a g2b constant region primer is mentioned only in illustrative cloning methods; also called IGP101 antibody; mouse monoclonal antibody IGP101
With B1, the binding result is listed as “no binding”.
